Assay: yeast display, Sf9 membrane polyspecificity reagent, FACS + sequencing; frameworks hold sequencing errors
Outline: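 A synthetic nanobody library was expressed on Saccharomyces cerevisiae BJ5465 by galactose induction for 36–48 hours. The library was stained for 1 hour at 4 °C with 10% biotinylated, detergent-solubilized Sf9 membrane reagent and enriched with streptavidin microbeads before FACS. Low and high (top ~1%) gates were set on anti-HA fluorescence for expression and streptavidin fluorescence for reagent binding, and each polyreactivity label reflects the gate of origin.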

| Sequence | polyreactivity (PSR sort gate) |
| --- | --- |
| QVQLVESGGGLVQAGGSLRLSCSASGRIFSRYAMGWYRQAPGKERELVATISSGGGTYYADSVKGRFTISRDNAKNTVYLQMNSLKPEDTAVYYCATRYPRKLRVPYDYWGQGTQVTVSS | high polyreactivity |
| QVQLVESGGGLVQAGGSLRLSCSASGRTFEHNCMGWSRQAHGKERELVASITSVGSTDYADSVKGRFTISRDNAKNTVYLQMNSLKPEDTAVYYCAKTLGSQNYDFDYWGQGTQVTVSS | low polyreactivity |
| QVQLVESGGGLVQAGGSLRLSCSASGRTFLGYAMGWYRQAPGKERELVAAITIGGGTYADSVKGRFTISRDNAKNTVYLQMNSLKPEDTAVYYCAKPGWYDGDYWGQGTQVTVSS | low polyreactivity |
| QVQLVESGGGLVQAGGSLRLSCSASGRTFTVNAMGWYRQAPGKERELVATITYGGGSTYYADSVKGRFTISRDNAKNTVYVQMNSLKREDTAVYYCYADYWAVNYDYWGQGTQVTVSS | low polyreactivity |
| QVQLVESGGGLVQAGGSLRLSCSASGRTFWRYAMGWYRQAPGKERELVAAISSGGRTNYADSVKGRFTISRDNAKNTVYLQMNSLIPEDTAVYYCAADSYYGYGYWGQGTQVTVSS | high polyreactivity |
| QVQLVESGGGLVQAGGSLRLSCSASGSIFDVFAMGWYRQAPGKERELVAGISRSGGSTYYADSVKGRFTISRDNAKNTVYLQMNSLKPEDTAVYYCAARYTYYRGRYDYWGQGTQVTVSS | low polyreactivity |
| QVQLVESGGGLVQAGGSLRLSCSASGSIFGFYAMGWYRQAPGKERELVAAIDSGDSTNYADSVKGRFTISRDHAKNTVYLQMNSQKPEDSAVYYCNAEAWWYFWFDYWGQGTQVTVSS | low polyreactivity |
| QVQLVESGGGLVQAGGSLRLSCSASGSIFLIYAMGWYRQAPGKERELVATINRGDNTYYADSVKGRFTISRDNAKNSVYLQMNSLKPEDTAVYYCAARAYDLGYAGYDYWGQGTQVTVSS | low polyreactivity |
| QVQLVESGGGLVQAGGSLRLSCSASGSIFRSNAIGWYRQAPGKERELGAAISWSNDSTYYADSVKGRFTISRDNAKNTVYLQMNSLKPEDSAVYYCAAVGSGRYSGYDFLGQGTQVTVSS | high polyreactivity |
| QVQLVESGGGLVQAGGSLRLSCSASGSTFYYYAMGRYIQAPGKDRELVAAISSSGGTTYYADSVKGRFTISRDNAKNTVYLQMNSLKPEDTAVYYCAAQRYPSSLYQRFYYWGQGTQVTVSS | high polyreactivity |
| QVQLVESGGGLVQAGGSLRLSCSASGYTIDLYAKGWYRQAPGKERELVAAISIRGGSTYYADSVKGRFTISRDNAKNTVYLQMNSLKPEDTAVYYCATVTYRRSYIAYRGTGDYDYWGQGTQVTVSS | low polyreactivity |
| QVQLVESGGGLVQAGGSLRLSCSAYGRTFNSYAMGWYRQAPGKERELVATISSGGSTKYADSVKGRFTISRDNAKNTVYLQMNSLKPEDTAVYYCNKVFPNLYIYVVRGLIEMDYWGQGTQVTVSS | low polyreactivity |
| QVQLVESGGGLVQAGGSLRLSCSSSGSIFVKNAMGWYRQAPGKERELVATISTGGRTYYADSVKGRFTISRDNAKNTVYLQMNSLIPEDTAVYYCATDFYPRYLLRTYRPYYYCGQGTQVTVSS | low polyreactivity |
| QVQLVESGGGLVQAGGSLRLSCSSSGYTFYGYAMGWCRQAPGKERELVADISWSGTNTNYADSVKGRFTISRDNAKNTVYLQMNSLKQDDTAVYYGAAGYYYRGFYTEDYWGQGTQVTVSS | high polyreactivity |
| QVQLVESGGGLVQAGGSLRLSCTASGITSGSYAMGWYRQEPGKESELVAAISNSGSTYYADSVKGRFTISRDNAKNTVYLQMNSLKPEDTEVYYCAAVTVGGHRSHRSGRSDYWGQGTQVTVSS | low polyreactivity |
| QVQLVESGGGLVQAGGSLRLSCTASGSIFSHNSMGWYRQAPGKERELVAAINQNGGITYYADSVKGRFTISRDNAKNTVYLQMNSLKPEDTAVYYCAARRYYRRPHKYDYWGQGTQVTVSS | high polyreactivity |

| Sequence | polyreactivity (PSR sort gate) |
| --- | --- |
| QVQLVESGGGLVQAGGSLRLSCTASGSTFVAYAMGWYRQAPGKERELVAAITSSGGRTYYADSVKGRFTISRDNAKNTVYLQMNSLKPEDTAVYYCNVYPSRRRAVGESERYYWGQGTQVTVSS | high polyreactivity |
| QVQLVESGGGLVQAGGSLRLSCVASGSISQTYDMGWYRQAPGKERELVAAISSSGASTYYADSVKGRFTISRDNAKNTVYLQMNSLKPEDTAVYYCNADKFRRYGYWGQGTQVTVSS | high polyreactivity |
| QVQLVESGGGLVQAGGSLRLSCVPPDSSSLSMLWDGIDRRLGKKGSWLPVLTSRGVGTYYADSVKGRFTISRDNAKNTVYLQMNSLKPEDTAVYYCYARYEVFYRYDYWGQGTQVTVSS | low polyreactivity |
| QVQLVESGGGLVQAGGSLRLSCVPSARTFYVYAMGWYRQSPGKQSELVAAIDYSGGDTYYADSVKGRFTISRDNAKNTVYLQMNSLKPVDTAVYYCAAEEYIPIYRYDYEYWGQGTQVTVSS | high polyreactivity |
| QVQLVESGGGLVQAGGSLRLSCVSSGFTFYFYAMGWYRQPPGKEREFVATITSNGGSTYYADSVKGRFTISRDNAKNTDYLQINSLKPEDTAVYYCNAGRYVRWWWYSPDDYWGQGTQVTVSS | high polyreactivity |
| QVQLVESGGGLVQAGGSLRLSFAASGFIFGLNAKGWYRQAPAKERELVAAIRWRGDTTYYADSVKGRFTISRDNAKNTVYLQMKSLKPEDTAVYSCNAVVVPSRYDYWGQGTQVTVSS | low polyreactivity |
| QVQLVESGGGLVQAGGSLRLSFAASGFIFPYYAMGWYRQAPGKERELVAAITSSGGSTYYADSVKGRFTISRDNAKNTVYLQMNSLKPEDTAVYYCNAYGRRTREYDYWGQGTQVTVSS | high polyreactivity |
| QVQLVESGGGLVQAGGSLRLSFAASGFTFWKNAMGWYRQAPGKERELVATISNGGNTYYADSVKGRFTISRDNAKNTVYLQMNSLKPEDTAVYYCATGYPSDLGREFDYWGQGIQVTVSS | high polyreactivity |
| QVQLVESGGGLVQAGGSLRLSFAASGITFDHYAMGWYRQAPGKEREFVAAIDDIGGDTYYADSVKGRFTISRDNAKNTVYLQMNSLKPEDTAVYYCAADYGYYSRFYYWGQGTQVTVSS | low polyreactivity |
| QVQLVESGGGLVQAGGSLRLSFAASGITFTVYTMGWNRQAHGKVRELVPTINSSGSTYYADSVKGRFTISRDNAKNRVYLQMNSLKPEDTAVYYCAAEYWINRDLMDYWGQGTQVTVSS | high polyreactivity |
| QVQLVESGGGLVQAGGSLRLSFAASGITFYYYTMGWYRQAPGKERELVAGITRGGRTYYADSVKGRFTISRDNSKNSVYLQMNSLKPEDTAVYYFNADPWWRFDYWGQGTQVTVSS | low polyreactivity |
| QVQLVESGGGLVQAGGSLRLSFAASGITITYYAMGWYRQAPGKERELVAGITNGRSTYYADSVKGRFTISRDNAKNTVYLQMNSLKPEDTAVYYCAAYVWSHSVGHDYWGQGTQVTVSS | low polyreactivity |
| QVQLVESGGGLVQAGGSLRLSFAASGNILKSYAMGWYRQAHGKERELVAAISSSGGSTYYADSVKGRFTISRDNAKNSVYLQMNSLKPEDTAVYYCNAGAKSGKYYYWGQGTKVTVSS | low polyreactivity |
| QVQLVESGGGLVQAGGSLRLSFAASGRIFGTNTMGWYRQATGKERELVAGISSSGDSTYYADSVKGRFTISRDKAKNTVYLQINSLKPEDTAVYYCAARKGEFWLPQGGYNYWGQGTQVTVSS | low polyreactivity |
| QVQLVESGGGLVQAGGSLRLSFAASGRIFSDNAMGWYRQAPGKERELVATINYSGGSTYYADSVKGRFTISRDNAKNTFYLQMNSLKPEDTAVYYCATRIPHRIIYYDYDYWGQGTQVTVSS | low polyreactivity |
| QVQLVESGGGLVQAGGSLRLSFAASGRTFGEYTMGWYRQATGKERELVAAISSAGRTNYADSVKGRFTISRDNAKNTVYLQMNSLKPEDTAVYYCAADWTDDVPGYDYWGQGTQVTVSS | low polyreactivity |

Source: the nanobody polyreactivity screen of Harvey et al. (2022)
